Molecular target: Ints3-555-976 R788E/K789E (human, UniProt Q68E01-2 555-976, R788E;K789E)
Assay: EMSA; not reduced vs WT (WT itself weak); up to 200 uM; 20 mM Hepes pH 7.4, 100 mM NaCl, 1 mM MgCl2, 1 mg/ml BSA, 2 mM DTT, 5% glycerol; on ice 30 min; 7.5 nM probe; native 5% PAGE in 1X TBE
Conditions: protein: recombinant; chain copies: 2; label: 5' 32P; single strand

Chain of Ints3-555-976 R788E/K789E (Q68E01 556-977 R789E/K790E): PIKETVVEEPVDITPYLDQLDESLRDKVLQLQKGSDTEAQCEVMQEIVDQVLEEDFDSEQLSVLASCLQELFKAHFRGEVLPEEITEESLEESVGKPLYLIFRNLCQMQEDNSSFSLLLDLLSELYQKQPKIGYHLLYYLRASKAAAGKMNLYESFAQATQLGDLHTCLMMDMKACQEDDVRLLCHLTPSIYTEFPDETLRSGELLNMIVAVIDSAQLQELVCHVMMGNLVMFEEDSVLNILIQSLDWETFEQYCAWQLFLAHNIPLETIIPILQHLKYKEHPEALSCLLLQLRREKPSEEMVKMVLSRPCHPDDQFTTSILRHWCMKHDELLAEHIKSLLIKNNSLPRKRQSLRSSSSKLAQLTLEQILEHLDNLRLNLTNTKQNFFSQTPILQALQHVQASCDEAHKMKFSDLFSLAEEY

TTTTTTTTTTTTTTTTTTTTTTTTTTTTTT (ssDNA) [dT30]
binding result: binds

Source: paper PMC7948952, “Structural basis for multifunctional roles of human Ints3 C-terminal domain” (The Journal of Biological Chemistry, 2020)
